From the RNAGym collection of RNA variant scans (doi:10.1073/pnas.2313332121)

B1: TPR t1 (parent)
chain: GACCAAUCUGCCCUCAGAGCUCGAGAACAUCUUCGGAUGCAGAGGAGGCAGGCUUCGGUGGCGCGAUAGCGCCAACGUCCUCAACCUCCAAUGCAUCCCACCACAUGAUGAUGCCUGAAGAGCCUUGGUUUUUUG

Variants of: B1
Assay: polymerase ribozyme fitness, log enrichment relative to wild type (log ratio); higher = more active; in vitro selection for triplet polymerase activity
Procedure, shortened: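 Input and output libraries were sequenced on Illumina after a single in vitro selection round, run in triplicate on PCR-built, transcribed mutant libraries of each subunit of a heterodimeric triplet polymerase ribozyme. Selection annealed libraries to a biotinylated primer, the partner subunit and triplets, incubated them frozen at −7 °C, then gel-excised extended constructs for streptavidin-bead capture and RT-PCR. Genotypes with ≥10 input reads and ≥1 read per output were kept. Fitness is the logarithm, taken in base 2, of genotype enrichment divided by wild-type enrichment, using inverse-variance-weighted replicate averages.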

G52C C64U C123U and G52A G93U G120A are within 0.2 log units of each other in “polymerase ribozyme fitness (log ratio)” value: -0.169 for the first, -0.0896 for the second.

First: G52A C56U C72U G113C U125A
Second: C53A C76U U87C
The “polymerase ribozyme fitness (log ratio)” value of the first is lower: -2.88 for the first, -0.534 for the second.

Compared with C53G C70G U81C C94G A121C, G52C U54G G69A U87C A100U is higher in “polymerase ribozyme fitness (log ratio)” value: -7.53 for the first, -6.57 for the second.

First: G52C U59C G60U A66G
Second: G52A G61A
The “polymerase ribozyme fitness (log ratio)” value of the first is lower: -5.6 for the first, -0.531 for the second.

Compared with C53G A75U C88A, G52U C82U G110U is lower in “polymerase ribozyme fitness (log ratio)” value: -0.918 for the first, -2.9 for the second.

First: C53A G63A G93A
Second: C53G G63U G122A
The “polymerase ribozyme fitness (log ratio)” value of the first is higher: -1.34 for the first, -1.7 for the second.

Compared with G52A G71C A95C G113C, G51U U54A C123G U129A is higher in “polymerase ribozyme fitness (log ratio)” value: -6.98 for the first, -2.43 for the second.

First: C53A G60U U106A U109G G113U
Second: G52U C72A C85A
The “polymerase ribozyme fitness (log ratio)” value of the first is lower: -5.78 for the first, -1.3 for the second.

First: C53G A74G
Second: G52A G60U C82A C88U A90G U116A U130A
The “polymerase ribozyme fitness (log ratio)” value of the first is higher: -1.52 for the first, -6.12 for the second.

C53A G110A and G52C C53U G71U are within 0.2 log units of each other in “polymerase ribozyme fitness (log ratio)” value: -0.6 for the first, -0.538 for the second.

Going from G52U U106C to G52A C72G A95C, the “polymerase ribozyme fitness (log ratio)” value falls from -1.2 to -2.

First: C53A U78A
Second: C53G A83C
The “polymerase ribozyme fitness (log ratio)” value of the first is higher: 0.532 for the first, -1.33 for the second.

First: C53A C124G
Second: C53A C88G C104A U129A
The “polymerase ribozyme fitness (log ratio)” value of the first is higher: 0.737 for the first, -3.51 for the second.

Going from G51U U112A U133C to G52A C53G U59A A119U, the “polymerase ribozyme fitness (log ratio)” value falls from -3.27 to -4.71.

Going from G52A A118U to G52U G71U, the “polymerase ribozyme fitness (log ratio)” value falls from 0.938 to -0.703.

Going from C53A C89U U126C to G52C C56A G57A C89U A91C C94U, the “polymerase ribozyme fitness (log ratio)” value falls from -1.37 to -3.35.

Compared with G52U U92C C114G, G52U C72U A121C is higher in “polymerase ribozyme fitness (log ratio)” value: -5.11 for the first, 0.242 for the second.

First: C53G C114U G122A
Second: G52U C124A
The “polymerase ribozyme fitness (log ratio)” value of the first is lower: -2.38 for the first, 0.485 for the second.

Compared with C53G C56A C86U U96G G117U, C53A U55A G63A G71U G120C is lower in “polymerase ribozyme fitness (log ratio)” value: -3.87 for the first, -4.29 for the second.

First: C53G G61A
Second: G52C C56A C72G U132C
The “polymerase ribozyme fitness (log ratio)” value of the first is higher: -1.75 for the first, -3.89 for the second.

Compared with G52A G61A C79G, C53G C102U U112A G120U is lower in “polymerase ribozyme fitness (log ratio)” value: -0.673 for the first, -4.93 for the second.

Going from G51U U54A C89U U129C to C53A C73A U116A, the “polymerase ribozyme fitness (log ratio)” value falls from -2.82 to -3.87.

First: G52A C94A
Second: C53G C86A A119G G120U
The “polymerase ribozyme fitness (log ratio)” value of the first is lower: -1.72 for the first, -0.713 for the second.

Going from G52A C89G U129G to G52U U55G C82A C89G, the “polymerase ribozyme fitness (log ratio)” value falls from -2.09 to -3.64.

Going from G52C G69C G117C to C53A C79A C104A U106A U132C, the “polymerase ribozyme fitness (log ratio)” value rises from -6.05 to -3.18.

Compared with G52A C98A, C53G C76G A100U is higher in “polymerase ribozyme fitness (log ratio)” value: -4.54 for the first, -0.651 for the second.

Going from G52C U54G C82G to G52A A111C, the “polymerase ribozyme fitness (log ratio)” value rises from -1.46 to 0.197.

First: G52C G93C
Second: C53A C98U
The “polymerase ribozyme fitness (log ratio)” value of the first is lower: -1.82 for the first, -0.601 for the second.

Compared with C53A C98A, C53A G69U C88G U112A G122A U133C is higher in “polymerase ribozyme fitness (log ratio)” value: -5.56 for the first, 1.96 for the second.

First: G52C C53A C97U C101U
Second: G52A C73G
The “polymerase ribozyme fitness (log ratio)” value of the first is higher: -1.86 for the first, -2.63 for the second.

First: G52A C73A
Second: G52U G63C U92A
The “polymerase ribozyme fitness (log ratio)” value of the first is higher: -0.179 for the first, -4.96 for the second.

Compared with G52U C79A, G52U A105G A121C is lower in “polymerase ribozyme fitness (log ratio)” value: -1.05 for the first, -2.06 for the second.

Compared with G52C C56A C102U U133A, G52U C115A is higher in “polymerase ribozyme fitness (log ratio)” value: -2.78 for the first, -0.782 for the second.

G52U C73U and G52C C88A are within 0.2 log units of each other in “polymerase ribozyme fitness (log ratio)” value: -0.9 for the first, -0.833 for the second.

First: C53A G60A C72A A91U U92G C97A C124A
Second: G52U U96A
The “polymerase ribozyme fitness (log ratio)” value of the first is lower: -7.15 for the first, -2.01 for the second.

Going from C53G C101A A121U U126G to G52A C70U C102U, the “polymerase ribozyme fitness (log ratio)” value falls from -0.329 to -2.87.

Compared with G52A G120C, G52A C88G is lower in “polymerase ribozyme fitness (log ratio)” value: 0.847 for the first, -0.655 for the second.

Compared with G52U C73U C104G C115A, G52U G63C is higher in “polymerase ribozyme fitness (log ratio)” value: -6.56 for the first, -0.581 for the second.

First: G52U G63A
Second: G52C G117A
The “polymerase ribozyme fitness (log ratio)” value of the first is lower: -1.95 for the first, -1.64 for the second.

Compared with G52U U81C, G52U U54G is higher in “polymerase ribozyme fitness (log ratio)” value: -1.74 for the first, -1.03 for the second.

Going from C53A C115U to G52U C56U U116A, the “polymerase ribozyme fitness (log ratio)” value falls from -0.961 to -4.17.

With C53G C70U C86U A119G the “polymerase ribozyme fitness (log ratio)” value was -0.0477.
